What was measured:
Experiment in all cases: cell-based or functional assay
[1] = molecular target: AA-TGFB-067 (TGFB-067), TGF-BR2 ECD-FCGR2A TM-FCGR2A ICD
[2] = molecular target: AA-TGFB-062 (TGFB-062), TGF-BR2 ECD-CD28 Long TM-TRAF6 ICD
[3] = molecular target: AA-TGFB-070 (TGFB-070), TGF-BR2 ECD-SLAMF1 TM-SLAMF1 ICD
[4] = molecular target: AA-TGFB-081 (TGFB-081), TGF-BR2 ECD-ICOS TM-ICOS ICD
[5] = molecular target: AA-TGFB-091 (TGFB-091), TGF-BR2 ECD-CD28 Long TM-Syk ICD
[6] = molecular target: AA-TGFB-068 (TGFB-068), TGF-BR2 ECD-FCGR3A TM-FCGR3A ICD
Sequence of AA-TGFB-068 (TGFB-068), TGF-BR2 ECD-FCGR3A TM-FCGR3A ICD (chain, as listed by the source limits assumed, form in doubt): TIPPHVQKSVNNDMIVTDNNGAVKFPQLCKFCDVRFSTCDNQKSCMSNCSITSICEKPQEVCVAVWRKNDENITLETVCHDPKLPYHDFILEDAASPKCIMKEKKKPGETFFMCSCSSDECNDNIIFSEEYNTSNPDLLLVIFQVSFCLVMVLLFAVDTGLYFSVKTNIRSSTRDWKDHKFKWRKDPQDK

[7] = molecular target: AA-TGFB-082 (TGFB-082), TGF-BR2 ECD-NKp46 TM-NKp46 ICD
Sequence of AA-TGFB-082 (TGFB-082), TGF-BR2 ECD-NKp46 TM-NKp46 ICD (chain, as listed by the source limits assumed, form in doubt): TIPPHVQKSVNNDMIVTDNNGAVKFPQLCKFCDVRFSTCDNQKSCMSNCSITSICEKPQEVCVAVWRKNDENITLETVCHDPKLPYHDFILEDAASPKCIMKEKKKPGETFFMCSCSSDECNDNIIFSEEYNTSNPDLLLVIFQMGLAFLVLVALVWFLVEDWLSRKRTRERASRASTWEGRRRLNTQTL

[8] = molecular target: AA-TGFB-094 (TGFB-094), TGF-BR2 ECD-CD28 Long TM-Lyn ICD
[9] = molecular target: AA-TGFB-021 (TGFB-021), TGF-BR2 ECD-CD28 TM-CD3z ICD
[10] = molecular target: AA-TGFB-075 (TGFB-075), TGF-BR2 ECD-SLAMF3 TM-SLAMF3 ICD
Sequence of AA-TGFB-075 (TGFB-075), TGF-BR2 ECD-SLAMF3 TM-SLAMF3 ICD (chain, as listed by the source limits assumed, form in doubt): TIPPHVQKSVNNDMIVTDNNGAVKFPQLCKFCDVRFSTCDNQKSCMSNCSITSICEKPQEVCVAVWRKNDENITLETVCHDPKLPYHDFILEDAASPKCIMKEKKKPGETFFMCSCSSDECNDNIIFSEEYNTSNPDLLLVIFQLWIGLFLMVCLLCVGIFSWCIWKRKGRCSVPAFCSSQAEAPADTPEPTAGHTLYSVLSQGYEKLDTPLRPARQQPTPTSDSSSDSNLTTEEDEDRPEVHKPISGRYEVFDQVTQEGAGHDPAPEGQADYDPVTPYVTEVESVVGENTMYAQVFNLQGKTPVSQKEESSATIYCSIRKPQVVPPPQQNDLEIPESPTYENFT

[11] = molecular target: AA-TGFB-076 (TGFB-076), TGF-BR2 ECD-EPOR TM-EPOR ICD
Sequence of AA-TGFB-076 (TGFB-076), TGF-BR2 ECD-EPOR TM-EPOR ICD (chain, as listed by the source limits assumed, form in doubt): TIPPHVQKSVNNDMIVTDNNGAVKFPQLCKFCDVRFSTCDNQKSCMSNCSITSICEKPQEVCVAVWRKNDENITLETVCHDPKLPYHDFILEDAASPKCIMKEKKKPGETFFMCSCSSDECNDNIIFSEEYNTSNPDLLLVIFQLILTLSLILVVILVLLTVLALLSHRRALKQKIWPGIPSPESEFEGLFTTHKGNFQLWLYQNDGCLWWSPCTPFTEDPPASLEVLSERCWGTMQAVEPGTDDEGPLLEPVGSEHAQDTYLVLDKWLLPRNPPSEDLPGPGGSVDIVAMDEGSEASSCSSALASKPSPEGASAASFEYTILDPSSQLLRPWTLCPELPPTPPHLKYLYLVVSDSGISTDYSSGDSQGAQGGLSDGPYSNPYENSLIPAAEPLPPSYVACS

[12] = molecular target: AA-TGFB-083 (TGFB-083), TGF-BR2 ECD-NKp44 TM-NKp44 ICD
[13] = molecular target: AA-TGFB-084 (TGFB-084), TGF-BR2 ECD-NKp30 TM-NKp30 ICD
[14] = molecular target: AA-TGFB-060 (TGFB-060), TGF-BR2 ECD-CD28 Long TM-TRAF2 ICD
[15] = molecular target: AA-TGFB-095 (TGFB-095), TGF-BR2 ECD-CD28 Long TM-YES1 ICD
Sequence of AA-TGFB-095 (TGFB-095), TGF-BR2 ECD-CD28 Long TM-YES1 ICD (chain, as listed by the source limits assumed, form in doubt): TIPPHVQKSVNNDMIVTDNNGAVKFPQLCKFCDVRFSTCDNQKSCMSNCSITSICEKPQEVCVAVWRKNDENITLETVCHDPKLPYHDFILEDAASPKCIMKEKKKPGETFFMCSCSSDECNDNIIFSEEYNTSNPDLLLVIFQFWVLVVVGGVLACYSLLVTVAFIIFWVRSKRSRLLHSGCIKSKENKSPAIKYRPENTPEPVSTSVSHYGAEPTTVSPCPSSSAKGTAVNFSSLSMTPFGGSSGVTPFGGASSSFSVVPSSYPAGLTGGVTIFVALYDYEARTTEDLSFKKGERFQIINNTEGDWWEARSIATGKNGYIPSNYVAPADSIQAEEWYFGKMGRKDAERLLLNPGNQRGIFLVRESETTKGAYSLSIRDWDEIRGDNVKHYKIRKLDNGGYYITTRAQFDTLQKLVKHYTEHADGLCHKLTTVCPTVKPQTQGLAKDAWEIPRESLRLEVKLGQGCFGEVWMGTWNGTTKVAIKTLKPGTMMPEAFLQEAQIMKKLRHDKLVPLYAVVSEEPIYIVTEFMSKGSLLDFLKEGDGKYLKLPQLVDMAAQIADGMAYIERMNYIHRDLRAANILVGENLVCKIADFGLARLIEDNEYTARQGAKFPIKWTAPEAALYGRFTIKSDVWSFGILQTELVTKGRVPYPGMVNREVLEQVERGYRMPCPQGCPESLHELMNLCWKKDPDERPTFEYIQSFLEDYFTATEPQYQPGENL

[16] = molecular target: AA-TGFB-057 (TGFB-057), TGF-BR2 ECD-CD28 Long TM-MYD88 ICD
[17] = molecular target: AA-TGFB-052 (TGFB-052), TGF-BR2 ECD-CD28 TM-41BB ICD
Sequence of AA-TGFB-052 (TGFB-052), TGF-BR2 ECD-CD28 TM-41BB ICD (chain, as listed by the source limits assumed, form in doubt): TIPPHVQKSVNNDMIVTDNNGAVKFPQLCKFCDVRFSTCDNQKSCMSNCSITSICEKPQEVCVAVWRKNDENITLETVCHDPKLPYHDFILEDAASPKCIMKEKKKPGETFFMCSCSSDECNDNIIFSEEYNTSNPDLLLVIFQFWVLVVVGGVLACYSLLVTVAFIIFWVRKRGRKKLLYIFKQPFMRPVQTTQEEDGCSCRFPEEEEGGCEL

[18] = molecular target: AA-TGFB-071 (TGFB-071), TGF-BR2 ECD-SLAMF5 TM-SLAMF5 ICD
Sequence of AA-TGFB-071 (TGFB-071), TGF-BR2 ECD-SLAMF5 TM-SLAMF5 ICD (chain, as listed by the source limits assumed, form in doubt): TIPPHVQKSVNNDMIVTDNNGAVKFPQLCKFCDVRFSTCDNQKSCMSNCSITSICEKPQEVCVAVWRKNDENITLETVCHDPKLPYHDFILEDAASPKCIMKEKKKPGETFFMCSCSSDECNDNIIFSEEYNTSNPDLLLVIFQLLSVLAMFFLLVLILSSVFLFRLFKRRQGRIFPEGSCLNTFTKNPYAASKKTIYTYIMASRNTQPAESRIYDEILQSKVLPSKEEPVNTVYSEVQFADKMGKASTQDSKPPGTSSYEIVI

[19] = molecular target: AA-TGFB-051 (TGFB-051), TGF-BR2 ECD-CD28 TM-DAP10v2 ICD
[20] = molecular target: AA-TGFB-073 (TGFB-073), TGF-BR2 ECD-SLAMF7 TM-SLAMF7 ICD
Sequence of AA-TGFB-073 (TGFB-073), TGF-BR2 ECD-SLAMF7 TM-SLAMF7 ICD (chain, as listed by the source limits assumed, form in doubt): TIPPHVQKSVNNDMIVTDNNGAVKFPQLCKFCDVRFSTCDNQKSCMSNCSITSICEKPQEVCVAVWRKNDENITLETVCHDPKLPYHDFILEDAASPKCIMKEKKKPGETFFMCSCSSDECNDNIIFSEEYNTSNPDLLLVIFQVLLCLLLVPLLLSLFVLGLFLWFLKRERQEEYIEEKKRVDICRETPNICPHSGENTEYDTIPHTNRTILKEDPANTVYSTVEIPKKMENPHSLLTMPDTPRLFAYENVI

[21] = molecular target: AA-TGFB-056 (TGFB-056), TGF-BR2 ECD-CD28 Long TM-SLP76 ICD
Sequence of AA-TGFB-056 (TGFB-056), TGF-BR2 ECD-CD28 Long TM-SLP76 ICD (chain, as listed by the source limits assumed, form in doubt): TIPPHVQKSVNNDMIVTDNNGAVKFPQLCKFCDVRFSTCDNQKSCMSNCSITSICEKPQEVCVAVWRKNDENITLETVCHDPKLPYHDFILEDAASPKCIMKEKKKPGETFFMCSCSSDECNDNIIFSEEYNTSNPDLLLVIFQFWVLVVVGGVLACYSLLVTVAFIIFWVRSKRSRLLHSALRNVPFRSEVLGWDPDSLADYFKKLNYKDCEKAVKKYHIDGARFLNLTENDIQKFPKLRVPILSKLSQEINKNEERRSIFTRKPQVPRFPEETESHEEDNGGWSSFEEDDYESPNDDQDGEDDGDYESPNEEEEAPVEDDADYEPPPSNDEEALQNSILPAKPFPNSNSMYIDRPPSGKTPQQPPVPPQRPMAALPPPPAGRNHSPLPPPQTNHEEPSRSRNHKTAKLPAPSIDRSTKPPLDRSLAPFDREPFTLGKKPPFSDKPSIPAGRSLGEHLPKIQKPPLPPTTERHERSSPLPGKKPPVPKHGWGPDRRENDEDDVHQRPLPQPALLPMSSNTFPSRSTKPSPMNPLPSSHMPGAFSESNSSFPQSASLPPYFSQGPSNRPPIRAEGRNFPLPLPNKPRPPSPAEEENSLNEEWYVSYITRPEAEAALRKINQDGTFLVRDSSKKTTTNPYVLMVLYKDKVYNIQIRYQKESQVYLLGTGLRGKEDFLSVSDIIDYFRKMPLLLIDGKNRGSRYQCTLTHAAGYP

[22] = molecular target: AA-TGFB-058 (TGFB-058), TGF-BR2 ECD-DAP12 TM-DAP12 ICD
Sequence of AA-TGFB-058 (TGFB-058), TGF-BR2 ECD-DAP12 TM-DAP12 ICD (chain, as listed by the source limits assumed, form in doubt): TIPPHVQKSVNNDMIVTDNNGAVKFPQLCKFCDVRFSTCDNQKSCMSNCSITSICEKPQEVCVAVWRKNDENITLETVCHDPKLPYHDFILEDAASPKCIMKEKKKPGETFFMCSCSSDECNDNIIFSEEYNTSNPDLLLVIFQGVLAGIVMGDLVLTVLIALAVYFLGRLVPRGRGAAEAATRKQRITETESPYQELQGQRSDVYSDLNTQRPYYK

[23] = molecular target: AA-TGFB-086 (TGFB-086), TGF-BR2 ECD-CD28 Long TM-IRAK4 ICD
Sequence of AA-TGFB-086 (TGFB-086), TGF-BR2 ECD-CD28 Long TM-IRAK4 ICD (chain, as listed by the source limits assumed, form in doubt): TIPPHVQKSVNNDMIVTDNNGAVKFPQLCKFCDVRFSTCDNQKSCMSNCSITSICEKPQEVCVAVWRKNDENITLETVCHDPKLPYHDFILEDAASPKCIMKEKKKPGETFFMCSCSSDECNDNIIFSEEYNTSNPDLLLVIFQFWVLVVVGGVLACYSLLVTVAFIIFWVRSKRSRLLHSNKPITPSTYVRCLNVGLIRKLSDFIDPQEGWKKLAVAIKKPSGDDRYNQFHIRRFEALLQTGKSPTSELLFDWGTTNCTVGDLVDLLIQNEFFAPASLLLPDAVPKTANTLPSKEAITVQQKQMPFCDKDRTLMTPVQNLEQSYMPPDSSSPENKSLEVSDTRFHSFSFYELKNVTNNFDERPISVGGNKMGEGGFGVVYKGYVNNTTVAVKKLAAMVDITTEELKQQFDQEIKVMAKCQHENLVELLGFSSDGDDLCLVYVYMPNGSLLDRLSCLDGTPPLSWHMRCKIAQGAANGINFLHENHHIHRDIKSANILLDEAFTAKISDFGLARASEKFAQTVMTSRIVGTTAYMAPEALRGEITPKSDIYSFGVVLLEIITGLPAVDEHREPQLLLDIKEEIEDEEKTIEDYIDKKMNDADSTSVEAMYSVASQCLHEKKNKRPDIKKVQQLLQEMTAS

Sequence of AA-TGFB-067 (TGFB-067), TGF-BR2 ECD-FCGR2A TM-FCGR2A ICD (chain, as listed by the source limits assumed, form in doubt): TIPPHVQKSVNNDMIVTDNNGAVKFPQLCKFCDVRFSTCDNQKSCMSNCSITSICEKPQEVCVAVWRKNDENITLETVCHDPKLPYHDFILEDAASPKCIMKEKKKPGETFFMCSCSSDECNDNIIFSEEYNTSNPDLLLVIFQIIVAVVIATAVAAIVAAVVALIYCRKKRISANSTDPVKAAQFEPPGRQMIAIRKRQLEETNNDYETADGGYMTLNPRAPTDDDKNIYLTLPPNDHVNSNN
Sequence of AA-TGFB-081 (TGFB-081), TGF-BR2 ECD-ICOS TM-ICOS ICD (chain, as listed by the source limits assumed, form in doubt): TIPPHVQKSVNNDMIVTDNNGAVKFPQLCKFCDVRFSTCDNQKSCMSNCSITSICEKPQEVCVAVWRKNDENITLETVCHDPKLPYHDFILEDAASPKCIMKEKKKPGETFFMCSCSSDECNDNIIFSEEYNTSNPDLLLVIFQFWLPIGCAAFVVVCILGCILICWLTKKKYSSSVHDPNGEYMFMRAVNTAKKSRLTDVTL
Sequence of recombinant TGF-B1 cytokine (P01137 279-390 limits assumed): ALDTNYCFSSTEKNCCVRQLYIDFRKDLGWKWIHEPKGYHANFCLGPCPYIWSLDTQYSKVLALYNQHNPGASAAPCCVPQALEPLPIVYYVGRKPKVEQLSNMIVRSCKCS

## recombinant TGF-B1 cytokine (from UniProt P01137 279-390) (ligand)
[1]
  5-Day Fold Expansion of NK cells, 10 ng/mL TGF-B1: 1.6 fold
  Average % Killing (SKOV-3), 10 ng/mL TGF-B1: 11.8%
  Average IFNg Secretion, 10 ng/mL TGF-B1: 4640 pg/mL
  Average IP-10 Secretion, 10 ng/mL TGF-B1: 1040
[2]
  5-Day Fold Expansion of NK cells, 10 ng/mL TGF-B1: 1.41 fold
  Average % Killing (SKOV-3), 10 ng/mL TGF-B1: 8.4%
  Average IFNg Secretion, 10 ng/mL TGF-B1: 3010 pg/mL
  Average IP-10 Secretion, 10 ng/mL TGF-B1: 1370
[3]
  5-Day Fold Expansion of NK cells, 10 ng/mL TGF-B1: 4.03 fold
  Average % Killing (SKOV-3), 10 ng/mL TGF-B1: 13.2%
  Average IFNg Secretion, 10 ng/mL TGF-B1: 7690 pg/mL
  Average IP-10 Secretion, 10 ng/mL TGF-B1: 1630
[4]
  5-Day Fold Expansion of NK cells, 10 ng/mL TGF-B1: 2.31 fold
  Average % Killing (SKOV-3), 10 ng/mL TGF-B1: 18.8%
  Average IFNg Secretion, 10 ng/mL TGF-B1: > 9000 pg/mL
  Average IP-10 Secretion, 10 ng/mL TGF-B1: 2180
[5]
  5-Day Fold Expansion of NK cells, 10 ng/mL TGF-B1: 0.24 fold
  Average % Killing (SKOV-3), 10 ng/mL TGF-B1: 1.9%
[6]
  5-Day Fold Expansion of NK cells, 10 ng/mL TGF-B1: 1.55 fold
  Average % Killing (SKOV-3), 10 ng/mL TGF-B1: 8.25%
  Average IFNg Secretion, 10 ng/mL TGF-B1: 2820 pg/mL
  Average IP-10 Secretion, 10 ng/mL TGF-B1: 686
[7]
  5-Day Fold Expansion of NK cells, 10 ng/mL TGF-B1: 3.26 fold
  Average % Killing (SKOV-3), 10 ng/mL TGF-B1: 20.4%
  Average IFNg Secretion, 10 ng/mL TGF-B1: 7170 pg/mL
  Average IP-10 Secretion, 10 ng/mL TGF-B1: 1350
[8]
  5-Day Fold Expansion of NK cells, 10 ng/mL TGF-B1: 1.2 fold
  Average % Killing (SKOV-3), 10 ng/mL TGF-B1: 16.5%
  Average IFNg Secretion, 10 ng/mL TGF-B1: > 9000 pg/mL
  Average IP-10 Secretion, 10 ng/mL TGF-B1: 3210
[9]
  5-Day Fold Expansion of NK cells, 10 ng/mL TGF-B1: 0.45 fold
  Average % Killing (SKOV-3), 10 ng/mL TGF-B1: 2.26%
  CD69, fold-change of MFI over no stimulation, High (0.05 ug/mL): 93 fold
  CD69, fold-change of MFI over no stimulation, Low (0.002 ug/mL): 21.5 fold
  CD69, fold-change of MFI over no stimulation, Med. (0.01 ug/mL): 62.2 fold
  GFP, fold-change of MFI over no stimulation, High (0.05 ug/mL): 10.1 fold
  GFP, fold-change of MFI over no stimulation, Low (0.002 ug/mL): 2.8 fold
  GFP, fold-change of MFI over no stimulation, Med. (0.01 ug/mL): 9.3 fold
[10]
  5-Day Fold Expansion of NK cells, 10 ng/mL TGF-B1: 3.86 fold
  Average % Killing (SKOV-3), 10 ng/mL TGF-B1: 9.64%
  Average IFNg Secretion, 10 ng/mL TGF-B1: 4420 pg/mL
  Average IP-10 Secretion, 10 ng/mL TGF-B1: 1040
[11]
  5-Day Fold Expansion of NK cells, 10 ng/mL TGF-B1: 2.94 fold
  Average % Killing (SKOV-3), 10 ng/mL TGF-B1: 14.3%
  Average IFNg Secretion, 10 ng/mL TGF-B1: 6650 pg/mL
  Average IP-10 Secretion, 10 ng/mL TGF-B1: 1340
[12]
  5-Day Fold Expansion of NK cells, 10 ng/mL TGF-B1: 2.08 fold
  Average % Killing (SKOV-3), 10 ng/mL TGF-B1: 14.1%
  Average IFNg Secretion, 10 ng/mL TGF-B1: 3960 pg/mL
  Average IP-10 Secretion, 10 ng/mL TGF-B1: 968
[13]
  5-Day Fold Expansion of NK cells, 10 ng/mL TGF-B1: 2.19 fold
  Average % Killing (SKOV-3), 10 ng/mL TGF-B1: 13.7%
  Average IFNg Secretion, 10 ng/mL TGF-B1: 4870 pg/mL
  Average IP-10 Secretion, 10 ng/mL TGF-B1: 1340
[14]
  5-Day Fold Expansion of NK cells, 10 ng/mL TGF-B1: 1.11 fold
  Average % Killing (SKOV-3), 10 ng/mL TGF-B1: 8.77%
  Average IFNg Secretion, 10 ng/mL TGF-B1: 3070 pg/mL
  Average IP-10 Secretion, 10 ng/mL TGF-B1: 1230
[15]
  5-Day Fold Expansion of NK cells, 10 ng/mL TGF-B1: 1.69 fold
  Average % Killing (SKOV-3), 10 ng/mL TGF-B1: 11.8%
  Average IFNg Secretion, 10 ng/mL TGF-B1: 6080 pg/mL
  Average IP-10 Secretion, 10 ng/mL TGF-B1: 1890
[16]
  5-Day Fold Expansion of NK cells, 10 ng/mL TGF-B1: 1.02 fold
  Average % Killing (SKOV-3), 10 ng/mL TGF-B1: 11.2%
  Average IFNg Secretion, 10 ng/mL TGF-B1: 7770 pg/mL
  Average IP-10 Secretion, 10 ng/mL TGF-B1: 2760
[17]
  5-Day Fold Expansion of NK cells, 10 ng/mL TGF-B1: 1.57 fold
  Average % Killing (SKOV-3), 10 ng/mL TGF-B1: 12.8%
  Average IFNg Secretion, 10 ng/mL TGF-B1: 8770 pg/mL
  Average IP-10 Secretion, 10 ng/mL TGF-B1: 976
[18]
  5-Day Fold Expansion of NK cells, 10 ng/mL TGF-B1: 3.06 fold
  Average % Killing (SKOV-3), 10 ng/mL TGF-B1: 18.8%
  Average IFNg Secretion, 10 ng/mL TGF-B1: > 9000 pg/mL
  Average IP-10 Secretion, 10 ng/mL TGF-B1: 2300
[19]
  5-Day Fold Expansion of NK cells, 10 ng/mL TGF-B1: 1.42 fold
  Average % Killing (SKOV-3), 10 ng/mL TGF-B1: 11.4%
  Average IFNg Secretion, 10 ng/mL TGF-B1: 4200 pg/mL
  Average IP-10 Secretion, 10 ng/mL TGF-B1: 671
[20]
  5-Day Fold Expansion of NK cells, 10 ng/mL TGF-B1: 3.08 fold
  Average % Killing (SKOV-3), 10 ng/mL TGF-B1: 13.1%
  Average IFNg Secretion, 10 ng/mL TGF-B1: 6910 pg/mL
  Average IP-10 Secretion, 10 ng/mL TGF-B1: 1420
[21]
  5-Day Fold Expansion of NK cells, 10 ng/mL TGF-B1: 0.41 fold
  Average % Killing (SKOV-3), 10 ng/mL TGF-B1: 2.07%
  Average IFNg Secretion, 10 ng/mL TGF-B1: 1.68 pg/mL
[22]
  5-Day Fold Expansion of NK cells, 10 ng/mL TGF-B1: 1.76 fold
  Average % Killing (SKOV-3), 10 ng/mL TGF-B1: 8.35%
  Average IFNg Secretion, 10 ng/mL TGF-B1: 2360 pg/mL
  Average IP-10 Secretion, 10 ng/mL TGF-B1: 837
[23]
  5-Day Fold Expansion of NK cells, 10 ng/mL TGF-B1: 1.76 fold
  Average % Killing (SKOV-3), 10 ng/mL TGF-B1: 7.83%
  Average IFNg Secretion, 10 ng/mL TGF-B1: 3150 pg/mL
  Average IP-10 Secretion, 10 ng/mL TGF-B1: 938
